Reference: article PMC3196588

Tests used:
[1] = molecular target: C3S mutant of human galectin-1 (human) (UniProt P09382); assay: affinity chromatography; galectin-1 C3S (or C3S N34D) coupled to 1 ml column; 2 mg haptoglobin (pooled from human plasma) in 2 ml PBS circulated 30 min on ice; wash 32 column volumes PBS; elution with 150 mM lactose; unbound fraction rechromatographed
[2] = molecular target: C3S mutant of human galectin-1 (human) (UniProt P09382); assay: affinity chromatography; galectin-1 C3S coupled to 1 ml NHS-activated Hi-Trap column; 0.1 ml serum from metastatic breast cancer patients in 1.9 ml PBS circulated 30 min on ice; wash 32 column volumes PBS; elution with 150 mM lactose; bound proteins identified by SDS-PAGE, MALDI-TOF MS and western blot, IgM and haptoglobin quantitated by ELISA
[3] = molecular target: C3S mutant of human galectin-1 (human) (UniProt P09382); assay: affinity chromatography; galectin-1 C3S (or its site B mutants) coupled to 1 ml NHS-activated Hi-Trap column; 0.1 ml serum from healthy individuals in 1.9 ml PBS circulated 30 min on ice; wash 32 column volumes PBS; elution with 150 mM lactose; bound proteins identified by SDS-PAGE, MALDI-TOF MS and western blot, IgM and haptoglobin quantitated by ELISA
[4] = molecular target: C3S mutant of human galectin-1 (human) (UniProt P09382); assay: fluorescence polarisation; fluorescence anisotropy inhibition assay: haptoglobin as inhibitor of the interaction of galectin-1 or mutants with a fluorescein tagged thiodigalactoside-amid (tdga) probe; Kd from inhibitory potency, haptoglobin counted as the dimer

haptoglobin (human, unfractionated) (from UniProt P00738 19-160; P00738 162-406) (complex)
percent bound to the column [1]: 30% | percent of haptoglobin bound to galectin-1 (average, cancer sera) [2]: 50% | percent of haptoglobin bound to galectin-1 (average, control sera) [3]: 30% | Kd [4]: 2500 nM

galectin-1 non-binding fraction of haptoglobin (from UniProt P00738 19-160; P00738 162-406) (complex)
percent bound to the column when rechromatographed [1]: < 1%

IgM (human serum) (from UniProt P01591 23-159) (complex)
percent of IgM bound to galectin-1 (mean, cancer sera) [2]: 28% | percent of IgM bound to galectin-1 (mean, healthy sera) [3]: 37%

galectin-1 binding fraction of haptoglobin (from UniProt P00738 19-160; P00738 162-406) (complex)
Kd [4]: < 1000 nM
